# Laboratory results published in US20100184658A1 (published 2010).
# T1: GRK7 (UniProt Q8WTQ7 1-553, limits assumed)
# T1 sequence (looked up): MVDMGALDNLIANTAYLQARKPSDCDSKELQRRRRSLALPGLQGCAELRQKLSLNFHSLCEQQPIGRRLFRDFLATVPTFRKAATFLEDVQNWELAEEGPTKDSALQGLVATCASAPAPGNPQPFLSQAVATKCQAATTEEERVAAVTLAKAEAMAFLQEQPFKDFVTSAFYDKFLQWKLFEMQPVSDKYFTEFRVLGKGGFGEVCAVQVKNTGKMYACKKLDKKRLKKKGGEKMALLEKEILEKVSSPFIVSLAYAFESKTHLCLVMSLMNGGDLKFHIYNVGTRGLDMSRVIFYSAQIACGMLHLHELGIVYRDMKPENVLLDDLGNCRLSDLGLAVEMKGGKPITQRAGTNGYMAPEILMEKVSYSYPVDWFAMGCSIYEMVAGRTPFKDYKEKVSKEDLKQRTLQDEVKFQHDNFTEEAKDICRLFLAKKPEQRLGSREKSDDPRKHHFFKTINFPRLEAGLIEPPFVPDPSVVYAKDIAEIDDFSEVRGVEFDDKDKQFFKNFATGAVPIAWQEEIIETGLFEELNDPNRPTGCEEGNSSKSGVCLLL
# T2: SGKL (SGK3) Serum/glucocorticoid regulated kinase family, member 3 (UniProt Q96BR1 1-496, limits assumed)
# T2 sequence (looked up): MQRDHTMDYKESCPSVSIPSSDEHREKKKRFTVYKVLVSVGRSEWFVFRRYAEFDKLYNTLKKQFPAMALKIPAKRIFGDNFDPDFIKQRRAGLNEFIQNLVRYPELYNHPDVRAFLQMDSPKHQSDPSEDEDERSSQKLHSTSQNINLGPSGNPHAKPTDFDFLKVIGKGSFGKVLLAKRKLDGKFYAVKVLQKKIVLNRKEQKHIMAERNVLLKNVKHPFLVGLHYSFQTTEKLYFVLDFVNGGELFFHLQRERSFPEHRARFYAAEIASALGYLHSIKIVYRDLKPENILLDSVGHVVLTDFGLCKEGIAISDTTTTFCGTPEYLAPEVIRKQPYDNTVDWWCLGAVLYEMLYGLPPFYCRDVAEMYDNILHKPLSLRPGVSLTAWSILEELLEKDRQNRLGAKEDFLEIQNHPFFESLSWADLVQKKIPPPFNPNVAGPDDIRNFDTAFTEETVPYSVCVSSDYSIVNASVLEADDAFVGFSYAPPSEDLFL
# T3: TYK2 (UniProt P29597 871-1187, limits assumed)
# T3 sequence (looked up): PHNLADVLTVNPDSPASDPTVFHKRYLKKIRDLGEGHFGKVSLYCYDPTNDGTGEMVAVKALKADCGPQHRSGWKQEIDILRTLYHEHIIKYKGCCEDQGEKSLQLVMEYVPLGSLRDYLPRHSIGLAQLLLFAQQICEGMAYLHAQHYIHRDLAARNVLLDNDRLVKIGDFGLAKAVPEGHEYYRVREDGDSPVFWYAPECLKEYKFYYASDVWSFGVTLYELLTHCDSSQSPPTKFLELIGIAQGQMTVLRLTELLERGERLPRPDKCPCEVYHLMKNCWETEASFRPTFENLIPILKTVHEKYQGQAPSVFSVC
# T4: ADRBK2 (GRK3) (UniProt P35626 1-688, limits assumed)
# T4 sequence (looked up): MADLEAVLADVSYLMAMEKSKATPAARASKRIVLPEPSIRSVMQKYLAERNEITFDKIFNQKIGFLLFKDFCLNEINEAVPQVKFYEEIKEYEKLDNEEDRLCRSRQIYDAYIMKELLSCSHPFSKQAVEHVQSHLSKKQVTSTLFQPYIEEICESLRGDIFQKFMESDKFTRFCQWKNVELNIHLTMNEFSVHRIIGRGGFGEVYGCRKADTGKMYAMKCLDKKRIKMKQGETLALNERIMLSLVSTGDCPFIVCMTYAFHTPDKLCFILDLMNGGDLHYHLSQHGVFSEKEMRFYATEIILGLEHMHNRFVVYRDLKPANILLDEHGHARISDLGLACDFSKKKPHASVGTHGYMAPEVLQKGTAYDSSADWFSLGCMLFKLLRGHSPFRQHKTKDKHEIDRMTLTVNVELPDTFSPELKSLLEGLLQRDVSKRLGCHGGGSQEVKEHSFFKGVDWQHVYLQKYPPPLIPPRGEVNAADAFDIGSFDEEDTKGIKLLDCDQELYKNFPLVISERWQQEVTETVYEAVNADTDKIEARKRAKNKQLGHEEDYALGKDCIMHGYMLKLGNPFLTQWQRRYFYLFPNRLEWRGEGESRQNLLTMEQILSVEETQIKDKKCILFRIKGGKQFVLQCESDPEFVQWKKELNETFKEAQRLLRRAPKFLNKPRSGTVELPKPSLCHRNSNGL
# Experiments:
# Assay in all cases: cell-based or functional assay
# [1] = molecular target: T1, GRK7
# [2] = molecular target: BRAF V-raf murine sarcoma viral oncogene homolog B1 (UniProt P15056 416-766, limits assumed)
# [3] = molecular target: RPS6KA1 (RSK1) Ribosomal protein S6 kinase, 90 kDa, polypeptide 1 (UniProt Q15418 1-735, limits assumed)
# [4] = molecular target: CAMK1D (CaMKI delta) Calcium/calmodulin-dependent protein kinase I delta (UniProt Q8IU85 1-385, limits assumed)
# [5] = molecular target: T2, SGKL (SGK3) Serum/glucocorticoid …
# [6] = molecular target: PRKCQ (PKC theta) (UniProt Q04759 1-706, limits assumed)
# [7] = molecular target: RPS6KA5 (MSK1) (UniProt O75582 1-802, limits assumed)
# [8] = molecular target: PRKCG (PKC gamma) (UniProt P05129 1-697, limits assumed)
# [9] = molecular target: PASK (UniProt Q96RG2 879-1323, limits assumed)
# [10] = molecular target: T3, TYK2
# [11] = molecular target: T4, ADRBK2 (GRK3)
# [12] = molecular target: PRKCD (PKC delta) (UniProt Q05655 1-676, limits assumed)
# Sequence of PRKCD (PKC delta) (Q05655 whole entry, stated change not applied): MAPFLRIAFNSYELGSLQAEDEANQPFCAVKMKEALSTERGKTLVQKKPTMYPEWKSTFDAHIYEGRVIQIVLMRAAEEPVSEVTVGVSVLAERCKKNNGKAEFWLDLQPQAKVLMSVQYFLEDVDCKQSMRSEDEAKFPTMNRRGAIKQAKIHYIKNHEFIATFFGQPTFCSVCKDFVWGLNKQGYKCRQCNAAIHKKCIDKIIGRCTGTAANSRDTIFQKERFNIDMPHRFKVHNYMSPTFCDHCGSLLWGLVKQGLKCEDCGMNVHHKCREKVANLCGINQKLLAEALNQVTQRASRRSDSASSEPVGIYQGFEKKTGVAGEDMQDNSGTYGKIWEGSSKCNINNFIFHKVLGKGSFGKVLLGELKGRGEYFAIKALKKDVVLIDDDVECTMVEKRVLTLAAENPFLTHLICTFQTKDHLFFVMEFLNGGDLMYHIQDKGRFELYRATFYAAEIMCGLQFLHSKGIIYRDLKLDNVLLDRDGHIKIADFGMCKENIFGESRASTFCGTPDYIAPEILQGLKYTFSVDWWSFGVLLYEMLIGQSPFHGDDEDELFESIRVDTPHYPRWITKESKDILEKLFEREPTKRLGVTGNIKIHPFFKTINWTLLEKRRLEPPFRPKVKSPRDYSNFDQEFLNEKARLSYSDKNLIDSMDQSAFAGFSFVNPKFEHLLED
# Sequence of RPS6KA5 (MSK1) (O75582 whole entry): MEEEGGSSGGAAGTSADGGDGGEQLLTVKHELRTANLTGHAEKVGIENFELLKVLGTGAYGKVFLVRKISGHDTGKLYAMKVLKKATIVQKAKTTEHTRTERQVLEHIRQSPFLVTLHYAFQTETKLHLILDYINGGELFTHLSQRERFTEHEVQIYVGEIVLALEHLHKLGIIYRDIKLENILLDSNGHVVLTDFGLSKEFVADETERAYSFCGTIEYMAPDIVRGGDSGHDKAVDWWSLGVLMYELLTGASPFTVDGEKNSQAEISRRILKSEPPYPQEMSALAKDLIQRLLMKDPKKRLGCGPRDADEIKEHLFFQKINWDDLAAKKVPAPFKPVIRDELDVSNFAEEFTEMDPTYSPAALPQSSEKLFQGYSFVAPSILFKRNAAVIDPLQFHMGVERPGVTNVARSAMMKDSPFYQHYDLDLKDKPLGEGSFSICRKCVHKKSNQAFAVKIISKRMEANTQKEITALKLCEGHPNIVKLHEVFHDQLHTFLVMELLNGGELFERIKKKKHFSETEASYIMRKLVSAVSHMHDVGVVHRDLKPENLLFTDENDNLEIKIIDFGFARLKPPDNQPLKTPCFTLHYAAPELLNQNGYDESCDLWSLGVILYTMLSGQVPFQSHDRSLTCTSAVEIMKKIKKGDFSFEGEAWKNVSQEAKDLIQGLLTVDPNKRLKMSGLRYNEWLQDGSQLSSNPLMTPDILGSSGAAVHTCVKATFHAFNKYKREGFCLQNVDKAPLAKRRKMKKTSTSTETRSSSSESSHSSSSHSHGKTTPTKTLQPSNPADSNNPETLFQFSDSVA
# Sequence of CAMK1D (CaMKI delta) Calcium/calmodulin-dependent protein kinase I delta (Q8IU85 whole entry, stated change not applied): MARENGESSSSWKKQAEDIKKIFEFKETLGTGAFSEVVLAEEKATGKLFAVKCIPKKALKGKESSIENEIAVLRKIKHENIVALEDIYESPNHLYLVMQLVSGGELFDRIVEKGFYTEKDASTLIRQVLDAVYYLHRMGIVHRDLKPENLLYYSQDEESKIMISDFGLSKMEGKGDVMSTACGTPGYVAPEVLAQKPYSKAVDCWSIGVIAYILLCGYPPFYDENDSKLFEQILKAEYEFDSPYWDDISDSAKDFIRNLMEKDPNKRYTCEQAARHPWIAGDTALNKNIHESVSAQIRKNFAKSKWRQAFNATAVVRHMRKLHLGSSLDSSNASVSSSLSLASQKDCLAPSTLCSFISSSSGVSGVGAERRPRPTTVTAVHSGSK
# Sequence of PRKCQ (PKC theta) (Q04759 whole entry): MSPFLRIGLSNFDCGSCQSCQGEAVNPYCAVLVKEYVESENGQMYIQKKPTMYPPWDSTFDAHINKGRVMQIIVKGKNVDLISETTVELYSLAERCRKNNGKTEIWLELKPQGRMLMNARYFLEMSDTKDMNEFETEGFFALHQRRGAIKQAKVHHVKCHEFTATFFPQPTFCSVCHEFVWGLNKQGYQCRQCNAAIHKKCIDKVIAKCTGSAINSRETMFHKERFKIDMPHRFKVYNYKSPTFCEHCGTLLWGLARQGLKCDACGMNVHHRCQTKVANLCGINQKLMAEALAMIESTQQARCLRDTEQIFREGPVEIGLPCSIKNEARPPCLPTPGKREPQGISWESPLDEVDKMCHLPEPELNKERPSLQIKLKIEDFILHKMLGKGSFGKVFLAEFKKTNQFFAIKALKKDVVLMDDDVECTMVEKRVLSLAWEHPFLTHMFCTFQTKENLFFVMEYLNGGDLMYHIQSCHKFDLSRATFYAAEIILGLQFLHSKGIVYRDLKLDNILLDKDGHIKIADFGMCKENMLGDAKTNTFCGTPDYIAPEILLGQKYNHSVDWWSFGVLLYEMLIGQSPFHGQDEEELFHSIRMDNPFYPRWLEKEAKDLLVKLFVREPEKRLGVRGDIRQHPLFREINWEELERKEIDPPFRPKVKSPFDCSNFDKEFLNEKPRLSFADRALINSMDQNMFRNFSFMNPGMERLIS
# Sequence of RPS6KA1 (RSK1) Ribosomal protein S6 kinase, 90 kDa, polypeptide 1 (Q15418 whole entry): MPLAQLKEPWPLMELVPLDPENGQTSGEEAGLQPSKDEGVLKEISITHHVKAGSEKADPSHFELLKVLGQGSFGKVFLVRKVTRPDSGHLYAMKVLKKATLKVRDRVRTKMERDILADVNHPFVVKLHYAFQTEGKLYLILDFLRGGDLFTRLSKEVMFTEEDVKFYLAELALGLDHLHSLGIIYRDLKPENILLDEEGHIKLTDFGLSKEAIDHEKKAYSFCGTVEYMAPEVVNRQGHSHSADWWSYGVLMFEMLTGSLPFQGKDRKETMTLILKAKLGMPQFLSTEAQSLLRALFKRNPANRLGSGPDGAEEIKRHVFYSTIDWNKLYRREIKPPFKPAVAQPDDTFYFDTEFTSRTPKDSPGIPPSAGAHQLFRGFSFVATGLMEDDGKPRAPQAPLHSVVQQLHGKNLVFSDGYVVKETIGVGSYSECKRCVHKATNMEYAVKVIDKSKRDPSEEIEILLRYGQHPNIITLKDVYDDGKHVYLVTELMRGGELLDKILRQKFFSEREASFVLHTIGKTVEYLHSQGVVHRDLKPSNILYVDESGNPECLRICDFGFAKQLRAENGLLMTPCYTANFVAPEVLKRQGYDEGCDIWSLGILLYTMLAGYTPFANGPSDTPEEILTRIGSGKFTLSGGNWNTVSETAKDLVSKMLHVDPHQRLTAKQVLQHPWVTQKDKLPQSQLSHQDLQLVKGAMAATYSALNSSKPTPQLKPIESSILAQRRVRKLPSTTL
# Sequence of BRAF V-raf murine sarcoma viral oncogene homolog B1 (P15056 416-766 limits assumed): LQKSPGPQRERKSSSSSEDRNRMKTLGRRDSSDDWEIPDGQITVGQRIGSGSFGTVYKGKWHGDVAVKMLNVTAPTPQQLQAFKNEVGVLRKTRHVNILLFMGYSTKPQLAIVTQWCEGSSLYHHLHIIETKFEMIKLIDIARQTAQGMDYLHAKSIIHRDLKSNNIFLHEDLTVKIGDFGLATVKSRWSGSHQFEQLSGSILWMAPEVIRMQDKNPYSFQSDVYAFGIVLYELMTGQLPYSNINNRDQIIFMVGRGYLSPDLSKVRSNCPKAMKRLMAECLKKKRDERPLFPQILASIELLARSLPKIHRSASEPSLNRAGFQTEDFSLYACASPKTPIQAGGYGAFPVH
# Sequence of PASK (Q96RG2 879-1323 limits assumed): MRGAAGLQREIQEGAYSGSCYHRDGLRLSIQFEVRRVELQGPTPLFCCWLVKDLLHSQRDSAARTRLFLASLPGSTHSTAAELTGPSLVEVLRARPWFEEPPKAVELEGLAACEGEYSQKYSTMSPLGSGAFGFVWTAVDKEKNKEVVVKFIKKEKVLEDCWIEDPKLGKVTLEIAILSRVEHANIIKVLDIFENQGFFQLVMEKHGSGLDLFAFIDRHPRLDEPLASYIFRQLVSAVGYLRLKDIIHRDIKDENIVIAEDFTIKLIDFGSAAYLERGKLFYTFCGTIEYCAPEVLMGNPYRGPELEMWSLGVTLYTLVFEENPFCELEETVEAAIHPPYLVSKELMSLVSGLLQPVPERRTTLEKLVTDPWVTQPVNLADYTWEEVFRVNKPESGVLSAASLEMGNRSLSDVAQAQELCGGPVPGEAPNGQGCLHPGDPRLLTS
binder,measurement,setting,value
SGRPPMIVWFNRPFLIAVSHTHGQTILFMAKVINPVGA [D3 peptide],% Inhibition mean,[1],49.9%
same,% Inhibition mean,[2],100%
same,% Inhibition mean,[3],98.3%
same,% Inhibition mean,[4],98%
same,% Inhibition mean,[5],97%
same,% Inhibition mean,[6],86.3%
same,% Inhibition mean,[7],85%
same,% Inhibition mean,[8],81%
same,% Inhibition mean,[9],80.8%
same,% Inhibition mean,[10],70.5%
same,% Inhibition mean,[11],66.7%
same,% Inhibition mean,[12],57.4%
